No end group written: not given here.
What was measured:
Human fibrinogen [1] = molecular target: T1, Human fibrinogen (Homo sapiens, UniProt P02671+P02675+P02679); experiment: Fibrinogen binding to peptide resin columns (affinity chromatography, UV 280 nm)
T1 construct: purchased Enzymes Research Labs (South Bend, Ind.)
T1 sequence (P02671 20-629 limits assumed): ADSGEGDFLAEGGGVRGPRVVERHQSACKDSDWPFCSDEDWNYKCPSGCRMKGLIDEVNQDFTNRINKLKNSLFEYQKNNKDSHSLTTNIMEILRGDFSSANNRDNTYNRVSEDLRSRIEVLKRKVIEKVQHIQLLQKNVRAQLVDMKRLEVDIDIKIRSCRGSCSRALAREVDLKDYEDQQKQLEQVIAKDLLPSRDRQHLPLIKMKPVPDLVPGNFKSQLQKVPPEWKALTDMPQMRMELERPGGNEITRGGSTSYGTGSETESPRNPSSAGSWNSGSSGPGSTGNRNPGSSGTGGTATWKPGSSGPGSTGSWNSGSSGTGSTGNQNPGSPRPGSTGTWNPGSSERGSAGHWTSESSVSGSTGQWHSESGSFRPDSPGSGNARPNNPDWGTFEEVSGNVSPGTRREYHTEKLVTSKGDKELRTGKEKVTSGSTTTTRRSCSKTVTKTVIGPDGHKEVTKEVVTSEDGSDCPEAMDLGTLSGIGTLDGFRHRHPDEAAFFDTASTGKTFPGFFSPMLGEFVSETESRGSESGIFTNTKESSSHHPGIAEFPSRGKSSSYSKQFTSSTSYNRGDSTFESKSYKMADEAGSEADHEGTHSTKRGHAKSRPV
T1 sequence (P02675 31-491): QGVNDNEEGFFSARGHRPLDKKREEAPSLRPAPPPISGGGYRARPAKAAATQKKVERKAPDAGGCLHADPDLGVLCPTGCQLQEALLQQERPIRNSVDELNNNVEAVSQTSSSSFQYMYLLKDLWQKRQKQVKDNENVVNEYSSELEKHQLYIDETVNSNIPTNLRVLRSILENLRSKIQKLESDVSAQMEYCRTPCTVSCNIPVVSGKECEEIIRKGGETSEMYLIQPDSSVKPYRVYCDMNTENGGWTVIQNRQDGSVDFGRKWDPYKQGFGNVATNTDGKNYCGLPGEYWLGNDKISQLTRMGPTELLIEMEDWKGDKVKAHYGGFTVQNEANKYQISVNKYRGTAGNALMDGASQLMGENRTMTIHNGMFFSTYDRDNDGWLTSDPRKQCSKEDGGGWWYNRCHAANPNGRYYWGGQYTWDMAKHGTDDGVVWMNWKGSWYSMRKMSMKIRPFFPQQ
T1 sequence (P02679 27-437 isoform P02679-2 limits assumed): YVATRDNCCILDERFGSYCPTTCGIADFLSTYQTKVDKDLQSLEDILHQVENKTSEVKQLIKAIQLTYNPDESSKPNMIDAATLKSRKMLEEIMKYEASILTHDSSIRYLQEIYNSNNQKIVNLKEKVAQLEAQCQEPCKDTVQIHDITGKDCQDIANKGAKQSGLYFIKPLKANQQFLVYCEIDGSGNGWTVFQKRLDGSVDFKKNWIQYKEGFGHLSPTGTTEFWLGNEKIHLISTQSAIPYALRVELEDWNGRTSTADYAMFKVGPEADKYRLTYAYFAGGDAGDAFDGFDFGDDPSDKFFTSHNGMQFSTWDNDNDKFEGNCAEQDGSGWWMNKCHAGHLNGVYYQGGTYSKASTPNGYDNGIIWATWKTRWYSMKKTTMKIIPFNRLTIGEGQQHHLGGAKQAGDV
Method: (§1) Dried peptide resins were packed into 0.6 ml columns (0.4 cm×5 cm, Thomson, Va.), and evaluated on a Waters HPLC-system (Milford, Mass.) with a UV-detector (Knauer, Germany) monitoring at 280 nm. The columns were conditioned with over 5 volumes of 20% ethanol in water, followed by a minimum of 5 volumes of water.
(§2) Human fibrinogen was purchased from Enzymes Research Labs (South Bend, Ind.), and 25% human serum albumin (HSA) was a donation from the Bayer Corporation (Clayton, N.C.). The following buffers were used for both dissolving fibrinogen and diluting HSA.
Peptide resin columns were equilibrated in Buffer A. The following program was used for each column run: From time 0-15 minutes, Buffer A was applied. At time 10 minutes, a 50 μl sample was injected onto the column with a 50 μl sample loop. From time 15-20 minutes, bound protein was step-eluted by switching to 0.4M acetic acid (Fisher), pH 2.6. The column was then re-equilibrated with Buffer A from time 20-30 minutes. A flow rate of 1 ml/min was used. For each column two injections were made: #1 Buffer A (blank); #2 10 μg/μl Fibrinogen dissolved in Buffer A.
(§3) This column was equilibrated in Buffer A, and the following program was used for each column run: From time 0-15 minutes, Buffer A was applied. At time 5 minutes, a 50 μl sample dissolved in buffer A was injected onto the column with a 100 μl sample loop. From time 15-20 minutes, bound protein was step-eluted by switching to 0.1M acetic acid, pH 2.9, followed by 0.4M acetic acid, pH 2.6, from time 20-21 minutes. The column was then re-equilibrated with Buffer A from time 21-30 minutes. During the column run, the flow rate was 1 ml/min from time 0-21 minutes; it was increased to 2 ml/min from time 21-30 minutes.
(§4) In total, seven injections were made: #1 Buffer A (blank); #2 100 μg/μl HSA; #3 20 μg/μl Fibrinogen; #4 Mixture of 5 μg/μl Fibrinogen and 90 μg/μl HSA; #5 Mixture of 10 μg/μl Fibrinogen and 75 μg/μl HSA; #6 Mixture of 20 μg/μl Fibrinogen and 50 μg/μl HSA; #7 20 μg/μl Fibrinogen.
(§5) After equilibrating in Buffer B, the following program was used for each column run: From time 0-15 minutes, Buffer B was applied. At time 5 minutes, 50 μL sample dissolved in Buffer B was injected onto the column with a 100 μl sample loop. From time 15-20 minutes, bound protein was step-eluted by switching to 20 mM acetic acid, pH 3.2, followed by 0.4M acetic acid, pH 2.6, from time 20-23 minutes. The column was then re-equilibrated with Buffer B from time 23-30 minutes. During the column run, the flow rate was 1 ml/min from time 0-23 minutes, then it was increased to 2 ml/min from time 23-30 minutes. In total, for each column seven injections were made: #1 Buffer B (blank); #2 for WQEHYN-column: 50 μg/μl HSA, and for YENYGY-column: 100 μg/μl HSA; #3 20 μg/μl Fibrinogen; #4 Mixture of 5 μg/μl Fibrinogen and […] HSA; #5 Mixture of 10 μg/μl Fibrinogen and 50 μg/μl HSA; #6 Mixture of 20 μg/μl Fibrinogen and 50 μg/μl HSA; #7 20 μg/μl Fibrinogen.

Human fibrinogen [2] = molecular target: T1, Human fibrinogen; experiment: Fibrinogen recovery from peptide columns (acetic acid elution, A280 of eluted peak); type: binding
Method: as §1, §2, §3, §4, §5
In parts (b) and (c), eluted protein was collected in 1.25 ml fractions, some in which pH was measured. The fractions were not re-adjusted to a neutral pH. The purity of the eluted protein was assessed by SDS-PAGE (Biorad) of non-reduced as well as of reduced samples. Broad Range Standards (Biorad) were used as molecular weight standards, and dithiothreitol (Sigma) was used as the reducing agent. Eluted protein was centrifuged and supernatant collected for determination of fibrinogen concentration by A280.

[3] = molecular target: T2, human serum albumin (HSA) (Homo sapiens, UniProt P02768); experiment: HSA binding to peptide resin columns (affinity chromatography); details: conditions of the experimental section, FIGS. 3-5
T2 construct: purchased Bayer Corporation (Clayton, N.C.), donated rather than bought
Method: as §1, §2
This column was equilibrated in Buffer A, and the following program was used for each column run: From time 0-15 minutes, Buffer A was applied. At time 5 minutes, a 50 μl sample dissolved in buffer A was injected onto the column with a 100 μl sample loop. From time 15-20 minutes, bound protein was step-eluted by switching to 0.1M acetic acid, pH 2.9, followed by 0.4M acetic acid, pH 2.6, from time 20-21 minutes. The column was then re-equilibrated with Buffer A from time 21-30 minutes. During the column run, the flow rate was 1 ml/min from time 0-21 minutes; it was increased to 2 ml/min from time 21-30 minutes. […]

[4] = conditions of the experimental section, FIGS. 3-5
[5] = Column run #3, injected 1000 μg fibrinogen (20 μg/μl fibrinogen alone)
[6] = Column run #4, injected 250 μg fibrinogen (5 μg/μl, mixture with HSA)
[7] = Column run #5, injected 500 μg fibrinogen (10 μg/μl, mixture with HSA)
[8] = Column run #6, injected 1000 μg fibrinogen (20 μg/μl, mixture with 50 μg/μl HSA)
[9] = Column run #7, injected 1000 μg fibrinogen (20 μg/μl fibrinogen alone)

Substance | fibrinogen binding to peptide column (Human fibrinogen [1]; Buffer A (preliminary test / later tests)) | fibrinogen binding to peptide column (Human fibrinogen [1]; Buffer B) | fibrinogen binding to peptide column (Human fibrinogen [1]; [4]) | Fibrinogen recovery, column peak (Human fibrinogen [2]; [5]) | Fibrinogen recovery, column peak (Human fibrinogen [2]; [6]) | Fibrinogen recovery, column peak (Human fibrinogen [2]; [7]) | Fibrinogen recovery, column peak (Human fibrinogen [2]; [8]) | Fibrinogen recovery, column peak (Human fibrinogen [2]; [9]) | HSA binding to peptide column [3]
W-E-Q-(S)-N-P (WEQSNP) | did not bind fibrinogen | did not bind fibrinogen |  |  |  |  |  |  | 
Tyr-Glu-Asn-Tyr-Gly-Tyr (YENYGY; not fully specified (C-terminus); printed as Tyr-Glu-Asn-Tyr-Gly-Tyr) [hexapeptide ligand synthesized onto TOTDA-modified Toyopearl resin] |  |  | bound fibrinogen | 530 µg | 150 µg | 280 µg | 520 µg | 530 µg | 
Trp-Gln-Glu-His-Tyr-Asn (WQEHYN; not fully specified (C-terminus); printed as Trp-Gln-Glu-His-Tyr-Asn) [hexapeptide ligand synthesized onto TOTDA-modified Toyopearl resin] |  |  | bound fibrinogen | 330 µg | 70 µg | 140 µg | 220 µg | 240 µg | none of these peptides bound HSA
Trp-Gln-Glu-Thr-Tyr-Gln (WQETYQ; not fully specified (C-terminus); printed as Trp-Gln-Glu-Thr-Tyr-Gln) [hexapeptide ligand synthesized onto TOTDA-modified Toyopearl resin] |  |  | bound fibrinogen | 360 µg | 100 µg | 150 µg | 310 µg | 340 µg | none of these peptides bound HSA
